Here are results for two molecules from US20150274820A1 (ESBATECH AN ALCON BIOMEDICAL RESEARCH UNIT, published 2015).

One assay has as its target T1, recombinant human PLGF (human, UniProt P49763-2 19-149, limits assumed).
T1 construct: Negative control; also called PIGF
T1 sequence (looked up): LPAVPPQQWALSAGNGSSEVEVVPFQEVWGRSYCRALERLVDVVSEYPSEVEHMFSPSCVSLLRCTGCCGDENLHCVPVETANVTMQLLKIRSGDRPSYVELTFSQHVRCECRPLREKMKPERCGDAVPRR
The experiment in a line: Biacore SPR, PlGF immobilized, pH 5. For orientation: SPR reads the build-up and loss of mass on a sensor chip optically.

Assay [1] has as its target T2, recombinant human VEGF165 (human, UniProt P15692 27-191).
T2 construct: mature; Isoform VEGF165 of the entry; also called hVEGF165; hVEGF
The experiment in a line: VEGFR2 competition ELISA: hVEGF165 coated on the plate, scFv pre-incubated with human VEGFR2/Fc chimera, bound VEGFR2/Fc detected with anti-human Fc-HRP, OD 450 nm; half-maximal inhibition. How it is done: After 30-60 min of incubation at room temperature, the mixtures were transferred to the human VEGF₁₆₅ immobilized plate and incubated for 90 min. […] Optical density at 450 nm (OD 450 nm) was measured using a Sunrise microplate reader (Tecan).

Assay [2] has as its target T2, recombinant human VEGF165. Briefly: Biacore SPR, VEGF immobilized, pH 7.4.
Target sequence in this assay (P15692 other isoform, or with tags, fused parts or gaps): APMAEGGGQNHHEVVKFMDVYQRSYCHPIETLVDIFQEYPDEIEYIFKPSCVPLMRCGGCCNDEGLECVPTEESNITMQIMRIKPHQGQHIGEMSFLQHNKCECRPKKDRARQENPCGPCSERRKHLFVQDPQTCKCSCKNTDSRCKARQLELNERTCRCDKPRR
Assay [3] concerns the target T2, recombinant human VEGF165. The experiment in a line: cell-based or functional assay.
For assay [4], the target named is T3, recombinant human VEGF121 (human, UniProt P15692 27-147).
T3 construct: mature; Isoform VEGF121 of the entry; also called hVEGF121
T3 sequence (looked up): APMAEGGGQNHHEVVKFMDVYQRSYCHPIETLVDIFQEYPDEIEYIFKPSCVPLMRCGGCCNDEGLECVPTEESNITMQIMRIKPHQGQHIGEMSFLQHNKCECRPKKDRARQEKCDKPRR
Briefly: Biacore SPR, VEGF immobilized, pH 5.

In assay [5] the target is T4, recombinant human VEGF110 (human, UniProt P15692-4 27-136, limits assumed).
T4 construct: Made in house; also called hVEGF110
T4 sequence (looked up): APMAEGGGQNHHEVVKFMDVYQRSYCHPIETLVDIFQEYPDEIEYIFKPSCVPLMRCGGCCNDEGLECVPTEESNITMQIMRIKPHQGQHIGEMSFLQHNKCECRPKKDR
The experiment in a line: Biacore SPR, VEGF immobilized, pH 5.

The target in assay [6] is T2, recombinant human VEGF165. The experiment in a line: Biacore SPR, VEGF immobilized, pH 5.
Target sequence in this assay (P15692 other isoform, or with tags, fused parts or gaps): as the sequence (P15692 other isoform, or with tags, fused parts or gaps) above
The target of assay [7] is recombinant rat VEGF164 (rat) (UniProt P16612). Briefly: Biacore SPR, VEGF immobilized, pH 5.
For assay [8], the target named is recombinant murine VEGF164 (mouse) (UniProt Q00731). The experiment in a line: Biacore SPR, VEGF immobilized, pH 5.
Assay [9] has as its target T2, recombinant human VEGF165. The experiment in a line: Biacore SPR, VEGF immobilized, pH 5. This is another data set of the same source.
Target sequence in this assay (P15692 other isoform, or with tags, fused parts or gaps): as the sequence (P15692 other isoform, or with tags, fused parts or gaps) above
Assay [10] deals with T3, recombinant human VEGF121. Briefly: Biacore SPR (FIG. 3b legend; differs from Table 9). On the procedure: In this example, the Biacore-binding ability of scFvs was tested and the binding affinity was measured using the exemplary surface plasmon resonance method with BIAcore™-T100. The VEGF proteins, tested for binding by these scFv candidates, in this example and later examples include purified Escherichia coli-expressed recombinant human VEGF₁₆₅ (PeproTech EC Ltd.), recombinant human VEGF₁₂₁ (PeproTech EC Ltd.), recombinant human VEGF₁₁₀ (ESBATech AG), recombinant murine VEGF₁₆₄ (PeproTech EC Ltd.), recombinant rat VEGF₁₆₄ (Biovision), recombinant rabbit VEGF₁₁₀ (ESBATech AG), and recombinant human PLGF (PeproTech EC Ltd.). For the surface plasmon resonance experiment, carboxymethylated dextran biosensor chips (CM4, GE Healthcare) were activated with N-ethyl-N′-(3-dimethylaminopropyl) carbodiimide hydrochloride and N-hydroxysuccinimide according to the supplier's instructions. Each of the 6 different VEGF forms, as exemplified above, was coupled to 1 of the 4 different flow cells on a CM4 sensor chip using a standard amine-coupling procedure. […] The apparent dissociation rate constant (kd), the apparent association rate constant (kₐ) and the apparent dissociation equilibrium constant (KD) were calculated using one-to-one Langmuir binding model with BIAcore T100 evaluation Software version 1.1.

For assay [11], the target named is T2, recombinant human VEGF165. Briefly: Biacore SPR, VEGF immobilized, pH 5. The source holds these as a separate data set.
Target sequence in this assay (P15692 other isoform, or with tags, fused parts or gaps): as the sequence (P15692 other isoform, or with tags, fused parts or gaps) above
Assay [12] deals with T2, recombinant human VEGF165. Briefly: cell-based or functional assay. This is another data set of the same source.
In assay [13] the target is T2, recombinant human VEGF165. The experiment in a line: cell-based or functional assay. This is another data set of the same source.
Target sequence in this assay (P15692 other isoform, or with tags, fused parts or gaps): as the sequence (P15692 other isoform, or with tags, fused parts or gaps) above
Assay [14] concerns the target T2, recombinant human VEGF165. Briefly: Biacore SPR (FIG. 4c legend; differs from Table 10). How it is done:
For the surface plasmon resonance experiment, carboxymethylated dextran biosensor chips (CM4, GE Healthcare) were activated with N-ethyl-N′-(3-dimethylaminopropyl) carbodiimide hydrochloride and N-hydroxysuccinimide according to the supplier's instructions. Each of the 6 different VEGF forms, as exemplified above, was coupled to 1 of the 4 different flow cells on a CM4 sensor chip using a standard amine-coupling procedure. […] The 4th flow cell of each chip was treated similarly except no proteins were immobilized prior to blocking, and the flow cell was used as in-line reference. […] Dissociation of the anti-VEGF scFv from the VEGF on the CM4 chip was allowed to proceed for 10 min at 25° C. Sensorgrams were generated for each anti-VEGF scFv sample after in-line reference cell correction followed by buffer sample subtraction. The apparent dissociation rate constant (kd), the apparent association rate constant (kₐ) and the apparent dissociation equilibrium constant (KD) were calculated using one-to-one Langmuir binding model with BIAcore T100 evaluation Software version 1.1.
The present invention also discloses derivatives originating from the lead anti-VEGF scFv candidates, which are mentioned above.

Several values for one entry are separate records, joined by “and”; a condition that tells them apart may be missing. Equal values may be shown once.

B1: 578-max (scFv)
scFv: EIVMTQSPSTLSASVGDRVIITCQASEIIHSWLAWYQQKPGKAPKLLIYLASTLASGVPSRFSGSGSGTQFTLTISSLQPDDFATYYCQNVYLASTNGANFGQGTKLTVLGGGGGSGGGGSGGGGSGGGGSEVQLVESGGGLVQPGGSLRLSCTASGFSLTDYYYMTWVRQAPGKGLEWVGFIDPDDDPYYATWAKGRFTISRDTSKNTVYLQMNSLRAEDTAVYYCAGGDHNSGWGLDIWGQGTLVTVSS
notes: also called EP578max; #821
The EC50 (read off the curve) is the concentration at which the effect is half-maximal. A word on the koff: it is the rate constant with which the complex falls apart. The kon is a measure of how fast the partners come together. As a reminder, the Kd is the equilibrium constant for the complex coming apart. B1: the binding result with recombinant human PLGF is “no binding”. Also, in assay [1], the “EC50 (read off the curve)” value is about 400 pM. Also, the koff came to 3.76e-05 s⁻¹ in [2]; 0.000558 s⁻¹ in assay [4]; 0.000722 s⁻¹ in assay [5]; 0.000307 s⁻¹ in [6]; 0.000528 s⁻¹ in assay [7]; 0.00044 s⁻¹ in assay [8]. Moreover, the koff in [9] and in [11] was 0.000307 s⁻¹ each time. In addition, the kon in [2] turned out to be 1.58e+06 M⁻¹ s⁻¹; in [4] it was 587000 M⁻¹ s⁻¹; in [5] it was 523000 M⁻¹ s⁻¹; in [6] it was 700000 M⁻¹ s⁻¹; in assay [7], 883000 M⁻¹ s⁻¹; in [8] it was 1.03e+06 M⁻¹ s⁻¹. Moreover, the kon in assay [9] and in [11] was 700000 M⁻¹ s⁻¹ in each case. The “Rel. activity in HUVEC assay (EC50Luc[nM]/EC50test[nM]) hVEGF” value in assay [3] was 0.94 and 1 and 1.2. Moreover, the Kd in [10] was 95 pM. Also, in assay [12], the “EC50 in HUVEC assay (FIG. 8d)” value was 103 pM. Besides, the “Rel. activity in HUVEC assay (EC50Luc[nM]/EC50test[nM])” value in assay [13] came to 1.48.

B2: 578 wildtype C-His (scFv, not shown: small tags and cut ends)
scFv: DVVMTQTPSSVSAAVGDTVTINCQASEIIHSWLAWYQQKPGQPPKLLIYLASTLASGVPSRFKGSGSGTQFTLTISDLECADAAIYYCQNVYLASTNGANFGGGTEVVVKGGGGSGGGGSGGGGSGGGGSQSVEESGGRLVTPGTPLTLTCTASGFSLTDYYYMTWVRLAPGKGLEYIGFIDPDDDPYYATWAKGRFTISRTSTTVNLKMTSPTTEDTATYFCAGGDHNSGWGLDIWGPGTLVTVSL
notes: Rabbit wild type single chain
With B2, in [9], the Kd turned out to be 200 pM, the koff is 0.000169 s⁻¹ and the kon was 834000 M⁻¹ s⁻¹. Moreover, in [14], the kon turned out to be 845000 M⁻¹ s⁻¹.
